These results are taken from article PMC5531557, “Crystal structure and kinetic analysis of the class B3 di-zinc metallo-β-lactamase LRA-12 from an Alaskan soil metagenome” (PLoS ONE, 2017).

The target of series [1] is T1, LRA-12 (uncultured bacterium BLR12, UniProt B5L5V5).
T1 construct: gene blaLRA-12; pET28a(+) in E. coli BL21(DE3), N-terminal His tag cut by thrombin; mature enzyme of 269 residues (Gln26-Asn306 in BBL numbering); di-zinc
Nature of the series: competition with ceftazidime hydrolysis, UV absorbance. It is filed as biochemical.

The target in series [2] is T1, LRA-12. The series is described as follows: residual ertapenem hydrolysis, UV absorbance. It is filed as biochemical.
The test system of series [3] is C[C@@H](O)[C@H]1C(=O)N2C(C(=O)O)=C(S[C@@H]3CN[C@H](C(=O)Nc4cccc(C(=O)O)c4)C3)[C@H](C)[C@H]12. Nature of the series: purified protein. It is filed as biochemical, uncultured bacterium BLR12. As to conditions: 10 mM HEPES, 20 mM NaCl, pH 7.5, room temperature.
Series [4] deals with CC(=O)OCC1=C(C(=O)O)N2C(=O)[C@@H](NC(=O)Cc3cccs3)[C@H]2SC1. Nature of the series: purified protein. It is filed as biochemical, uncultured bacterium BLR12. As to conditions: 10 mM HEPES, 20 mM NaCl, pH 7.5, room temperature.
Series [5] has as its system C[C@@H](O)[C@H]1C(=O)N2C(C(=O)O)=C(SCCN=CN)C[C@H]12. Nature of the series: purified protein. The class given is biochemical, uncultured bacterium BLR12. As to conditions: 10 mM HEPES, 20 mM NaCl, pH 7.5, room temperature.
The test system of series [6] is CO/N=C(\C(=O)N[C@@H]1C(=O)N2C(C(=O)O)=C(COC(C)=O)CS[C@H]12)c1csc(N)n1. The series is described as follows: purified protein. It is filed as biochemical, uncultured bacterium BLR12. To be noted: 10 mM HEPES, 20 mM NaCl, pH 7.5, room temperature.
In series [7] the test system is CO/N=C(\C(=O)N[C@@H]1C(=O)N2C(C(=O)O)=C(COC(N)=O)CS[C@H]12)c1ccco1. Nature of the series: purified protein. To be noted: 10 mM HEPES, 20 mM NaCl, pH 7.5, room temperature. The class given is biochemical, uncultured bacterium BLR12.
Series [8] has as its system CCN1CCN(C(=O)N[C@@H](C(=O)N[C@@H]2C(=O)N3[C@@H]2SC(C)(C)[C@@H]3C(=O)O)c2ccccc2)C(=O)C1=O. Nature of the series: purified protein. It is filed as biochemical, uncultured bacterium BLR12. As to conditions: 10 mM HEPES, 20 mM NaCl, pH 7.5, room temperature.
Series [9] has as its system CC1(C)S[C@@H]2[C@H](NC(=O)Cc3ccccc3)C(=O)N2[C@H]1C(=O)O. The series is described as follows: purified protein. It is filed as biochemical, uncultured bacterium BLR12. As to conditions: 10 mM HEPES, 20 mM NaCl, pH 7.5, room temperature.
Series [10] concerns CC(C)(O/N=C(\C(=O)N[C@@H]1C(=O)N2C(C(=O)[O-])=C(C[n+]3ccccc3)CS[C@H]12)c1csc(N)n1)C(=O)O. The series is described as follows: purified protein. The class given is biochemical, uncultured bacterium BLR12. To be noted: 10 mM HEPES, 20 mM NaCl, pH 7.5, room temperature.
Series [11] has as its system C[C@@H](O)[C@H]1C(=O)N2C(C(=O)O)=C(S[C@@H]3CN[C@H](C(=O)N(C)C)C3)[C@H](C)[C@H]12. Nature of the series: purified protein. It is filed as biochemical, uncultured bacterium BLR12. As to conditions: 10 mM HEPES, 20 mM NaCl, pH 7.5, room temperature.
Series [12] has as its system CO/N=C(\C(=O)N[C@@H]1C(=O)N2C(C(=O)[O-])=C(C[N+]3(C)CCCC3)CS[C@H]12)c1csc(N)n1. Nature of the series: purified protein. It is filed as biochemical, uncultured bacterium BLR12. To be noted: 10 mM HEPES, 20 mM NaCl, pH 7.5, room temperature.
In series [13] the test system is CO[C@@]1(NC(=O)Cc2cccs2)C(=O)N2C(C(=O)O)=C(COC(N)=O)CS[C@@H]21. The series is described as follows: purified protein. It is filed as biochemical, uncultured bacterium BLR12. As to conditions: 10 mM HEPES, 20 mM NaCl, pH 7.5, room temperature.

T1 sequence (B5L5V5 entry or part of it): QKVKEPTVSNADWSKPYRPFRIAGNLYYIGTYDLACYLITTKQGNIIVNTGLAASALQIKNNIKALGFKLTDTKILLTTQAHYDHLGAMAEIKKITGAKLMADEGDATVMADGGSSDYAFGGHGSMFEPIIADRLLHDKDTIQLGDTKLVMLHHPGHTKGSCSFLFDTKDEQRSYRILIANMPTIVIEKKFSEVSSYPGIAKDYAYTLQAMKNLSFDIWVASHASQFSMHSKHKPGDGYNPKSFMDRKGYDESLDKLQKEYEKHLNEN

`C[C@H]1[C@H](NC(=O)/C(=N\OC(C)(C)C(=O)O)c2csc(N)n2)C(=O)N1S(=O)(=O)O` [aztreonam]: in series [1], the inhibitory constant (Ki) (as a rule, a measure of affinity in units of concentration, obtained from inhibition or displacement) was found to be 146 µM.

Take `O=C(O)c1cccc(C(=O)O)n1` [DPA, pyridine-2,6-dicarboxylic acid]: the IC50 (usually the concentration at which inhibition is half-maximal) in series [2] is 460 µM.

`O=C(O)CN(CCN(CC(=O)O)CC(=O)O)CC(=O)O` [EDTA] displayed an IC50 in series [2] of 113 µM.

In the case of LRA-12 (uncultured bacterium BLR12), the Km (in general, the concentration of substrate that gives half-maximal velocity) turned out to be 43 ± 6 µM in series [3]; 11 ± 2 µM in series [4]; 39 ± 7 µM in [5]; 36 ± 4 µM in series [6]; 20 ± 3.4 µM in series [7]; 83 ± 9 µM in [8]. In addition, the Michaelis-Menten constant (Km) in series [9] was 47 ± 4 µM; in series [10], 59 ± 8 µM; in series [11] it was 113 ± 20 µM; in [12] it was 93 ± 13 µM; in [13], 4 ± 0.6 µM. Further, the kcat (in general, the number of substrate molecules converted per active site and unit of time at saturation) in series [3] was 57 ± 4 s⁻¹; in series [4] it was 18 ± 0.8 s⁻¹; in [5], 66 ± 5 s⁻¹; in series [6], 7 ± 0.3 s⁻¹; in series [7] it was 16 ± 0.9 s⁻¹; in series [8], 74 ± 3 s⁻¹. Moreover, the catalytic constant (kcat) in [9] amounted to 70 ± 2 s⁻¹; in [10], 12 ± 0.8 s⁻¹; in series [11], 95 ± 11 s⁻¹; in [12], 15 ± 1.4 s⁻¹; in [13] it was 7 ± 0.4 s⁻¹. Also, the specificity constant (kcat/Km) (as a rule, the turnover number divided by the Michaelis constant) in [3] came to 1.33e+06 ± 270000 M⁻¹ s⁻¹; in [4] it was 1.64e+06 ± 370000 M⁻¹ s⁻¹; in [5] it was 1.69e+06 ± 420000 M⁻¹ s⁻¹; in series [6], 190000 ± 30000 M⁻¹ s⁻¹; in [7] it was 800000 ± 190000 M⁻¹ s⁻¹; in series [8], 890000 ± 130000 M⁻¹ s⁻¹. Besides, the specificity constant (kcat/Km) amounted to 1.49e+06 ± 150000 M⁻¹ s⁻¹ in series [9]; 200000 ± 40000 M⁻¹ s⁻¹ in series [10]; 840000 ± 230000 M⁻¹ s⁻¹ in series [11]; 160000 ± 40000 M⁻¹ s⁻¹ in series [12]; 1.75e+06 ± 320000 M⁻¹ s⁻¹ in series [13].
